From the nanobody polyreactivity screen of Harvey et al. (2022)

Assay: yeast display, Sf9 membrane polyspecificity reagent, FACS + sequencing; frameworks hold sequencing errors
Summary of the method: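 Galactose-induced (36–48 hours) yeast carrying a synthetic nanobody display library were exposed to 10% biotinylated, detergent-solubilized Sf9 membrane reagent at 4 °C for 1 hour. FACS followed streptavidin microbead enrichment, using low and high (top ~1%) gates for expression (anti-HA) and reagent binding (streptavidin). Colony PCR, MiSeq 2 × 250 sequencing and CDR-length filtering followed. Labels for polyreactivity reflect the gate of origin.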

## QVQLVESGGGLVQAGGSLRLSCAASGSIFGTNAMGWYRQAPGKERELVAAIDGGSTTYYADSVKGRFTISRDNAKNTVYLQMNSLKPEDTAVYYCAADGTRYLNYEGYAGYEYWGQGTQVTVSS
  polyreactivity (PSR sort gate): low polyreactivity

## QVQLVESGGGLVQAGGSLRLSCAASGITFYVYTMGWYRQAPGKERELVAAINGSGGSTNYADSVKGRFPISRDNAKNTVYLQMNSLKPDDTAVYYCAADWSLSLYDYWGQGTQVSVSS
  polyreactivity (PSR sort gate): low polyreactivity

## QVQLVESGGGLVQAGGSLRLSCAASGRTFGPYAMGWYRQAPGKEREFVAAMSYSGGSTYYADSVKGRFTISRDTAKNTVFLQINSLKPEDTAVYYCAVDIDSNSGTRDYWGQGTQVTVSS
  polyreactivity (PSR sort gate): low polyreactivity

## QVQLVESGGGLVQAGGSLRLSCAASGLIFSVYAMGWYRKAPGKERELVAAITGGGSTHYADSVKGRFTISRDNAKNTVYLQMNSLKPEDTAVYYCATRSYSWLHYWTSRGDEDYWGQGTQVTVSS
  polyreactivity (PSR sort gate): high polyreactivity

## QVQLVESGGGLVQAGGSLRLSCAASGSTYPYPYTMGWSRQAPGKERELVAVISRTGGSTFYADSVKGRFTISRDNAKNTVHLQMNSLKPEDTAVYYCAARRDGWTFWKYDYWGQGTQVTVSS
  polyreactivity (PSR sort gate): high polyreactivity

## QYQLVESVGGLDQAGGTLRLSCAASARIFSYYAMGWYRQAPGKERELVATISYSGGSTYYADSVKGRFTISRDKAKNTVYLQMNSLKPEDSAVYYCAATRYPYFSFVRFPSRRFNYWGQGTQVTVSS
  polyreactivity (PSR sort gate): high polyreactivity

## QVQLVVSGGGLVQAGGSLRLSCAASGLTFWKYTLGWYRQAPGKEREWVAAMSISGTNTYYADSVKGRFTISRDNAKNTVYLQMNSLKPEDTAVYYCAAVRGYPPTNYYYCGQGTQVTVSS
  polyreactivity (PSR sort gate): high polyreactivity

## QVQLVESGGGLVQAGGSIRLSCAASGRTFGYYAMGWYRQAPGKERELVAAISWSGGRTYYADSVKGRFTISRDNAKNTVYLQMNSLKPEDTAVYYCAAQTAGFWYDYWGQGTQVTVSS
  polyreactivity (PSR sort gate): high polyreactivity

## QVQLVESGGGLVQAGGSLRLSCAASGYTFYIYVMGWYRQAPGKERELVAAISSGDSTNYADSVKGRFTISRDNAKNTVYLQMNSLKPEDTAVYYCNAVHRSIARGGGMDYWGQGTQVTVSS
  polyreactivity (PSR sort gate): low polyreactivity

## QVQLVESGGGLVQAGGSLRLSCAASGFIFSRYFMGWYRQAPGKERELVAAISWNVGSTYYADSVKGRFTISRDNAKNTVYLQMNSLKPEDTAVYYCAARDRRSVTMDYWGHGTQVTVSS
  polyreactivity (PSR sort gate): high polyreactivity

## QVQLVESGGGLVQAGGSLRLSCAASGRILDIYAMGWYRQAPGKDRELVAAINSDGRTYYADSVKGRFTISRDNAKNTVYLQMNSLKPEDTAVYYCNARHHNKVARFDYWGQGTQVTVSS
  polyreactivity (PSR sort gate): low polyreactivity

## QVQLVESGGGLVQAGGSLRLSCAASGRIFGDYGMGWYRQAPGKERELVAAITDRGGTTYYADSVKGRFTISRDNAKNTVFLQMNSLKPEDTAVYYCNARQSDIFDYDYWGKGTQVTVSS
  polyreactivity (PSR sort gate): low polyreactivity

## QVHLVESGGGLVQAGGILRLSCAASGSTFGYYAMGWYRQAPGKERELVAAITWSGDSTYADSVKGRFTISRDNAKNTVYLQMNSLKPEDTAVYYCARRGFLGHWPRPSYDYWGQGTQVTVSS
  polyreactivity (PSR sort gate): low polyreactivity

## QVQLVESGGGLVQAGGSLRLSCADSGRIFLTNAMGWYRQAPGKERELGATITSGGSTNYADSVKGRFTISRDNAKNTVYLQMNSLKPVDTAVYDCAADWEFGFDYWGQGTQVTVSS
  polyreactivity (PSR sort gate): low polyreactivity

## QVQLVESGGGLVQAGGSLRLSCAASGRTFNVNAMGWYRQAPGKERELVAAISSSGTTNYADSVKGRFTISRDNAKNTVYLQMNSLKPEDTAVYYCNKRWRDKYPQYDYWGQGTQVTVSS
  polyreactivity (PSR sort gate): low polyreactivity

## QVQLVESGGGLVQAGGSLRLSCAASGRTFVSYAMGWYRQAPGKERELVATITGSTGGTYYADSVKGRFTISRDNAKNTVYLQMNSLKPEDTAVYYCNKDYYYNPGNVASGYDYWGQGTQVTVSS
  polyreactivity (PSR sort gate): low polyreactivity

## QVQLVESGGGLVQAGGSLRLSCAASGFTIYFKAMGWYRQAPGKERELVAAISFSGGGTYYADSVKGRFTISRDNAKNTFYLQMNSLKPEDTAVYYCAADWYDWVSTYDYWGQGTQVTVSS
  polyreactivity (PSR sort gate): low polyreactivity

## QVQLVESGGGLVQAGGSLRLSCAASGSTFRSNAMGWYRQAPGKERELVAVISTRGGRTYYADSVKGRFTISRDNAKNTVYLQMNSLKPEDTAVYYCNTQISGSPYPYYYWGQGTQVTVSS
  polyreactivity (PSR sort gate): high polyreactivity

## QVQLVESAGRLVQAGGSLRLSCAASGFTFRKNAMGWYRQAPGKERELVAAITFSGGSTYYADSVKGRFTISRDNAKNTVYLQMNSLKPEDTAVYFCGTRYYYHYPRKHIYNYWGQGTQVTVSS
  polyreactivity (PSR sort gate): high polyreactivity

## QVQLVESGGGLVQARGSLRLSCAASGINFYHYPMGWYRQATGKEMELVAAINWGGSRTYYADSVKGRFTISRDNAKNTVYLQMNSLKPEDTAVYYCAAVYVPYYWLGRSRGLDYWGQGTQVTVSS
  polyreactivity (PSR sort gate): high polyreactivity

## QVQLVESGGGLVQAGGSLRLSCAASGSTFRFYGMGWYRQAPGKERELVAAITYRSGITYADSGKGGFSISRDNANNTVYLLMNSLKPEETAVYYCAARARRYTDEYDYWGQGTQVTVSS
  polyreactivity (PSR sort gate): low polyreactivity

## QGQLVESGGGLVQAGGSLRLICAASGFIFQANALGWYRQAPGQERELVAAITSSVGRTYYADSVKGRFTISRDNAKNTVYLQMNSLKPEYTEVYYCNAGGHLEMNYWGQGTQVTVSS
  polyreactivity (PSR sort gate): low polyreactivity

## QVQLVESGGGLVQAGGSLRLSCAASGRTFTFYTMGWYRQAPGKERELVARITGGGSTYYADSVKGRFTISRDNAKNTVYLQMNSLKPEDTAVYYCAAASGTKRLYRGTRGDYWGQGTQVTVSS
  polyreactivity (PSR sort gate): low polyreactivity

## QVQLVESGGGLVQAGGSLRLSCAASGFIFSNNAMGWYRQAPGKERELVAAITASGGRTYYADSVKGRFTISRDNAKNTVYLQMNSLKPEDTSVYYCAAALYDIMGYWGQGTQLTVSS
  polyreactivity (PSR sort gate): high polyreactivity

## QVQLVESGGGLVQAGGSLRLSCAASGRIFRRNAMGWYRQAPGKERELVAAITSNGGRTYYADSVKGRFTISRDNAKNTVYLQMNSLKPEDTAVYYCAADTYDNDYYYWGQGTQVTVSS
  polyreactivity (PSR sort gate): high polyreactivity

## QVQLVESGGGLVQAGGSLRLSCAASGSSLTRNDMGWHRLAPGKERELVAAISFSGSDTYYADSVKGRFTISRDNAKNTVYLQMNSLKPEDTAVYYCAAEYGGYSKYLFIGRYYWGQGTQVTVSS
  polyreactivity (PSR sort gate): low polyreactivity

## QVQLVESGGGLVQAGGSLRLSCAASGGPFFYYAMGWYRAAPGKAREWVAAITWSATDTYYADSVKGRFTISRDNAKNTVYIQMNSLKPEDTAVYYCNAAPIGSEVDYGGQGTQVTVSS
  polyreactivity (PSR sort gate): low polyreactivity

## QVQLVESGGGLVQAGGSLRLSCAASGFIFASNAMGWYRQAPGKERELVAGITKSGGSTYYADSVKGRFTISRDNAKNTVYLQMNSLKPEDTAVYYCAKVSYARAKSSGFYYWGQGTQVTVSS
  polyreactivity (PSR sort gate): high polyreactivity

## QVKLVESGGGLVQAGGSLRLSCAASGLTFRSYAMRWYRQAPGKERELVAAITRSGGSTYYADSVKGRFTISRDNAKNTVYLQMNRLKPEDTAVYYCAADYGRTLTGGDYWGQGTKVTVSS
  polyreactivity (PSR sort gate): high polyreactivity

## QVQLVESGGGLVQAGGSLRLICAASGRIFYYYTMGWYRQAPGKERELVDTIRSGGSTYYADSVKGRFTISRDNAKNTVYLQMNSLKPEDTAVYYCAAAYRTGRGYGFDYWGQGTQVTVSS
  polyreactivity (PSR sort gate): high polyreactivity

## QVQLVESGGGLVQAGGSLRLSCAASGSTFSSNAMGWYRQAPGKERELVAAITGSGGSTYYADSVKGRFTISRDNAKNTVYLQMNSLKPEDTAVYYCAAKWYGITYKYEYWGQGTQVTVSS
  polyreactivity (PSR sort gate): high polyreactivity

## QVQLVESGGGLVQAGGSLRLSCAASGSIFASNTMGWYRQAPGKERELVAGITKIGSSTYYADSVKGRFTISRDNAKNTVYLQMNSLKPEDTAVYYCAAGAWRGPYSGYYYWGQGTQVTVST
  polyreactivity (PSR sort gate): low polyreactivity
